# In US20220025003A1, “REAGENTS AND METHODS FOR CONTROLLING PROTEIN FUNCTION AND INTERACTION” (University of Washington, priority 2018, published 2022):
# B1: DNCR1: danoprevir/NS3a complex reader 1, intermediate-affinity variant, SEQ ID NO: 9 (protein)
# chain: SSDEEEARELIERAKEAAERAQEAAERTGDPRVRELARELKRLAQEAAEEVKRDPSSSDVNEALKLIVEAIEAAVDALEAAERTGDPEVRELARELVRLAVEAAEEVQRNPSSSDVNEALLSIVIAIEAAVHALEAAERTGDPEVRELARELVRLAVEAAEEVQRNPSSREVEHALMKIVLAIYEAEESLREAEESGDPEKREKARERVREAVERAEEVQRDPSGWLNH
# Assays:
# NS3a/asunaprevir complex = molecular target: T1, NS3a/asunaprevir complex (Hepatitis C virus genotype 1a, UniProt P27958, C1073S/C1078L/C1185S/I1043Q/I1044E/I1098T/L1039E/L1040E/L1047Q/L1179I/N1200S/P1112Q/Q1106K/T1100M/T1173A); assay: Yeast surface display binding and titration
# T1 construct: made in house; host or cells: E. coli BL21 (DE3), pDW363 with BirA
# Excerpt: (§1) ; these sorts are denoted as “avid” below. […] See FIG. 30a for yeast gating strategies.
# (§2) […]. Curves were fit using Graphpad Prism 5 to a one-site specific binding model with Hill coefficient.
# NS3a/danoprevir complex = molecular target: T2, NS3a/danoprevir complex (Hepatitis C virus genotype 1a, UniProt P27958, C1073S/C1078L/C1185S/I1043Q/I1044E/I1098T/L1039E/L1040E/L1047Q/L1179I/N1200S/P1112Q/Q1106K/T1100M/T1173A); assay: Yeast surface display binding and titration
# T2 construct: made in house; host or cells: E. coli BL21 (DE3), pDW363 with BirA
# Excerpt: as §1, §2
# NS3a/grazoprevir complex = molecular target: T3, NS3a/grazoprevir complex (Hepatitis C virus genotype 1a, UniProt P27958, C1073S/C1078L/C1185S/I1043Q/I1044E/I1098T/L1039E/L1040E/L1047Q/L1179I/N1200S/P1112Q/Q1106K/T1100M/T1173A); assay: Yeast surface display binding and titration
# T3 construct: made in house; host or cells: E. coli BL21 (DE3), pDW363 with BirA
# Excerpt: as §1, §2
# NS3a in NIH3T3 cells = assay: Confocal microscopy for colocalization analysis (fixed cells); type: cell-based; details: 10 μM drug, 1 h
# Experimental: A Leica SP8× system was used for confocal microscopy. […] TagBFP emission was recorded on a PMT detector, and EGFP and mCherry™ were detected by separate HyD™ detectors.
# Colocalization experiments were performed in NIH3T3 cells (Flp-In-3T3, Thermo Fisher Scientific). For fixed-cell experiments, cells were plated at 3×10^4 cells/mL on sterile glass coverslides placed in 12-well culture plates. […] One day after transfection, cells were treated with drug or DMSO and fixed. Drug additions were performed by exchanging the media for DMEM+10% v/v FBS plus drug. To fix, cells were washed once with DPBS (Thermo Fisher Scientific), then incubated with 4% v/v paraformaldehyde in DPBS for 15 minutes. After washing twice with DPBS, coverslides with cells were removed from the plate and mounted on glass slides using Fluoromount-G (SouthernBiotech).
# Colocalization of NS3a and DNCR1 at the plasma membrane, nucleus, mitochondria and Golgi was performed with two sets of constructs, with either NS3a or DNCR1 as the immobilized component. mCherry™-NS3a was used with Tom20-DNCR1-EGFP, DNCR1-EGFP-Giantin, and 3×NLS-DNCR1-EGFP. […] Colocalization was analyzed after 1 h of 10 μM drug or equal volume DMSO treatment.
# All images were analyzed using ImageJ. […] EGFP fluorescence was quantified in the ROI over the timecourse. […] The cytoplasmic fluorescence was normalized to the value in the first and last frame for each cell. […]
molecule,measurement,setting,value
B1,Kd,"NS3a/asunaprevir complex; apparent, yeast-displayed design, NS3a/asunaprevir complex, read-out: KD (nM) ± standard deviation",6300 ± 2600 nM
same,Fold drug specificity,NS3a/asunaprevir complex; danoprevir/NS3a over asunaprevir/NS3a,33 fold
same,Kd,"NS3a/danoprevir complex; apparent, yeast-displayed design, NS3a/danoprevir complex, read-out: KD (nM) ± standard deviation",190 ± 10 nM
same,binding to NS3a/danoprevir complex,NS3a/danoprevir complex; yeast surface display,high nanomolar affinity
same,Kd,"NS3a/grazoprevir complex; apparent, yeast-displayed design, NS3a/grazoprevir complex, read-out: KD (nM) ± standard deviation",2900 ± 100 nM
same,Fold drug specificity,NS3a/grazoprevir complex; danoprevir/NS3a over grazoprevir/NS3a,15 fold
same,Colocalization of DNCR1-EGFP and NS3a-mCherry,NS3a in NIH3T3 cells,functional binding specificity for the danoprevir/NS3a complex
